Laboratory results published in the supplement of paper PMC10724198.
± gives the standard deviation of the averaged measurements.

Experiments:
Saccharomyces cerevisiae [1] = assay: protein stability index of tFT-peptide fusion in wild type (PSI (0-1 scale)); higher = more stable (slower turnover); conditions: genetic background: wild type
Description: (§1)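 MPS profiling in S. cerevisiae of two library types built from selected 12-aa C-degron peptides (IN1, IN2, LN1, LN3, VN2, R1-R5, W1-W3, Atg1 and Rpa12 C-termini): saturation mutagenesis libraries and C-terminal +1 capping libraries (13 aa). Each peptide is fused to the C-terminus of a sfGFP-mCherry timer, after a GGGS linker. Cells are FACS-sorted into 8 mCherry/sfGFP bins and sequenced. PSI runs from 0 (unstable) to 1 (stable), measured once in wild type and in the das1Δ or doa10Δ background.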

Saccharomyces cerevisiae [2] = assay: protein stability index of tFT-peptide fusion in deletion strain of DAS1 (PSI (0-1 scale)); higher = more stable (slower turnover)
Description: as §1

Saccharomyces cerevisiae [3] = assay: protein stability index of tFT-peptide fusion (C-terminal peptide) (PSI (0-1 scale)); higher = more stable (slower turnover); conditions: temperature: 30 C
Description: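 MPS profiling in S. cerevisiae of the yeast C-terminome library: the last 12 aa of each annotated ORF are fused to the C-terminus of a sfGFP-mCherry timer, after a GGGS linker. Cells are FACS-sorted into 8 mCherry/sfGFP bins and deep-sequenced. PSI runs from 0 (unstable) to 1 (stable); wild type and das1Δ backgrounds, two technical replicates each.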

[4] = genetic background: das1 deletion
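Wherever protein stability index of tFT-peptide fusion in deletion strain of DAS1 is given: PSI is a weighted mean of each variant's read distribution over the sorted stability bins, computed only for variants having over 10 reads in total.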
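Wherever protein stability index of tFT-peptide fusion in wild type is given: PSI derived as read-weighted mean over the 8 sorting bins, only variants exceeding 10 total reads kept, mCherry placed adjacent to the peptide and sfGFP distal.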

| Sequence | protein stability index (Saccharomyces cerevisiae [1]) | protein stability index (Saccharomyces cerevisiae [2]) | protein stability index (Saccharomyces cerevisiae [3]; [4]) | protein stability index (Saccharomyces cerevisiae [3]; genetic background: wild type) |
| --- | --- | --- | --- | --- |
| LVVYMSCVACIN | 0.0151 | 0.0291 |  |  |
| RLIAPLPVQFLN | 0.0614 | 0.738 |  |  |
| MSMRWTFRYWVN | 0.0515 | 0.536 |  |  |
| FSMRWTGRYWVN | 0.0626 | 0.587 |  |  |
| RLIQPLPVQFMN | 0.0175 | 0.614 |  |  |
| LVPYLSCVACIN | 0.182 | 0.366 |  |  |
| LVVYLSCVACLN | 0.0163 | 0.0375 |  |  |
| FSMRWTFRYWVK | 0.49 | 0.45 |  |  |
| PDKRNHLIKILN | 0.137 | 0.663 |  |  |
| KKHKKGQKQKIA | 0.128 | 0.597 |  |  |
| PSLASSFWRVVG | 0.165 | 0.696 |  |  |
| PSLAASFWRVVGP | 0.684 | 0.692 |  |  |
| LKILRQKMNDQN | 0.552 | 0.687 |  |  |
| PSLAASIWRVVG | 0.143 | 0.69 |  |  |
| LKILEQKMNHQN | 0.473 | 0.66 |  |  |
| LVVYSSCVACIN | 0.0132 | 0.0458 |  |  |
| PTKRNHLIKLLN | 0.114 | 0.582 |  |  |
| RLIQPLPLQFLN | 0.0437 | 0.619 |  |  |
| VRGAVGGWRLVN | 0.157 | 0.673 |  |  |
| ARWRVGLRRGAS | 0.672 | 0.683 |  |  |
| ARWRVGLWRGLS | 0.119 | 0.661 |  |  |
| RVIQPLPVQFLN | 0.0531 | 0.576 |  |  |

| Sequence | protein stability index (Saccharomyces cerevisiae [1]) | protein stability index (Saccharomyces cerevisiae [2]) | protein stability index (Saccharomyces cerevisiae [3]; [4]) | protein stability index (Saccharomyces cerevisiae [3]; genetic background: wild type) |
| --- | --- | --- | --- | --- |
| PDKRNHLIKLLNM | 0.145 | 0.659 |  |  |
| PDKRNHLIKLAN | 0.367 | 0.579 |  |  |
| RLIQPLSVQFLN | 0.0547 | 0.594 |  |  |
| CTSCGYKFKTNN | 0.642 | 0.725 |  |  |
| LVVNLSCVACIN | 0.0111 | 0.172 |  |  |
| MVVYLSCVACIN | 0.0181 | 0.0769 |  |  |
| PVVYLSCVACIN | 0.0343 | 0.0265 |  |  |
| NKHKKGQKQKIN | 0.122 | 0.562 |  |  |
| LVWYLSCVACIN | 0.0133 | 0.0212 |  |  |
| LKIVRQKMNHQN | 0.197 | 0.696 |  |  |
| DDKRNHLIKLLN | 0.146 | 0.595 |  |  |
| ARWRVGLMRGAS | 0.596 | 0.677 |  |  |
| ARWFVGLWRGAS | 0.345 | 0.699 |  |  |
| SPKEEKRFKFKL [YGR127W C-terminal 12 aa] |  |  | 0.739 ± 0.046 | 0.801 ± 0.047 |
| QIIYYIARSKGL [MEC3 C-terminal 12 aa] |  |  | 0.665 ± 0.058 | 0.668 ± 0.035 |
| KVKRLMDFLEED [NSL1 C-terminal 12 aa] |  |  | 0.678 ± 0.0098 | 0.694 ± 0.024 |
| ETYGSKIVYRFS [GAL10 C-terminal 12 aa] |  |  | 0.692 ± 0.031 | 0.7035 ± 0.0018 |
| SVLSGSAEFVFY [NCA3 C-terminal 12 aa] |  |  | 0.7188 ± 0.0024 | 0.7148 ± 0.0061 |
| STDQLPELSFEV [TVP38 C-terminal 12 aa] |  |  | 0.699 ± 0.013 | 0.722 ± 0.0051 |
| ATVSKIIKLDRK [MYO4 C-terminal 12 aa] |  |  | 0.711 ± 0.0089 | 0.691 ± 0.025 |
| RVSLEKEAKQHG [ERV2 C-terminal 12 aa] |  |  | 0.715 ± 0.025 | 0.673 ± 0.0072 |
| KQQSWLRRVIGY [ENB1 C-terminal 12 aa] |  |  | 0.696 ± 0.015 | 0.688 ± 0.038 |

| Sequence | protein stability index (Saccharomyces cerevisiae [1]) | protein stability index (Saccharomyces cerevisiae [2]) | protein stability index (Saccharomyces cerevisiae [3]; [4]) | protein stability index (Saccharomyces cerevisiae [3]; genetic background: wild type) |
| --- | --- | --- | --- | --- |
| YAKFGDNINLER [GIM3 C-terminal 12 aa] |  |  | 0.70175 ± 0.00021 | 0.698 ± 0.031 |
| KTVGKLVLEIPQ [ZTA1 C-terminal 12 aa] |  |  | 0.689 ± 0.033 | 0.701 ± 0.051 |
| ENNEKFLNIRLY [CDC24 C-terminal 12 aa] |  |  | 0.71 ± 0.026 | 0.668 ± 0.013 |
| QSPLMDMLAPQL [TOM6 C-terminal 12 aa] |  |  | 0.706 ± 0.015 | 0.7117 ± 0.00029 |
| NYLKKHSEKQDA [ATP19 C-terminal 12 aa] |  |  | 0.709 ± 0.022 | 0.723 ± 0.066 |
| YVKQQHGQSQND [EAF6 C-terminal 12 aa] |  |  | 0.695 ± 0.021 | 0.694 ± 0.022 |
| ALSKDGIYTIAN [PAU1 C-terminal 12 aa] |  |  | 0.711 ± 0.0085 | 0.721 ± 0.017 |
| DIIKSIGDSYSI [NSE3 C-terminal 12 aa] |  |  | 0.69 ± 0.03 | 0.734 ± 0.076 |
| RLDKATKALEGF [NBA1 C-terminal 12 aa] |  |  | 0.6942 ± 0.0018 | 0.702 ± 0.033 |
| SSEEGYYIAGSI [IRC23 C-terminal 12 aa] |  |  | 0.8201 ± 0.0072 | 0.81 ± 0.01 |
| VTAGKAKFVLYN [SUN4 C-terminal 12 aa] |  |  | 0.665 ± 0.0087 | 0.445 ± 0.012 |
| FFLRSAAVYQPF [YPR197C C-terminal 12 aa] |  |  | 0.6949 ± 0.003 | 0.6815 ± 0.0047 |
| LAFSGGLANSIA [DSE4 C-terminal 12 aa] |  |  | 0.712 ± 0.00097 | 0.677 ± 0.024 |
| KKHDWSDISQLW [OSH3 C-terminal 12 aa] |  |  | 0.7283 ± 0.0011 | 0.728 ± 0.016 |
| KFFLTISADVSF [YNL057W C-terminal 12 aa] |  |  | 0.6369 ± 0.0022 | 0.647 ± 0.03 |
| ILNCVGSAKISG [YGR291C C-terminal 12 aa] |  |  | 0.668 ± 0.025 | 0.654 ± 0.02 |
| IPAYKKHGIQKN [OSH7 C-terminal 12 aa] |  |  | 0.694 ± 0.012 | 0.693 ± 0.038 |
| KTVIENPLEMLL [LAT1 C-terminal 12 aa] |  |  | 0.6972 ± 0.002 | 0.694 ± 0.025 |
| SVPKPSQARFSV [UTR1 C-terminal 12 aa] |  |  | 0.684 ± 0.025 | 0.703 ± 0.025 |
| EWSFASSGYKDD [PPN1 C-terminal 12 aa] |  |  | 0.7115 ± 0.0032 | 0.794 ± 0.041 |
| EEARQEKSGQES [CRZ1 C-terminal 12 aa] |  |  | 0.678 ± 0.048 | 0.659 ± 0.011 |
| TSCNLNSSVVRS [YOR186C-A C-terminal 12 aa] |  |  | 0.708 ± 0.035 | 0.695 ± 0.0014 |

| Sequence | protein stability index (Saccharomyces cerevisiae [1]) | protein stability index (Saccharomyces cerevisiae [2]) | protein stability index (Saccharomyces cerevisiae [3]; [4]) | protein stability index (Saccharomyces cerevisiae [3]; genetic background: wild type) |
| --- | --- | --- | --- | --- |
| KEEEGSFNNVIG [PRE2 C-terminal 12 aa] |  |  | 0.702 ± 0.012 | 0.66 ± 0.014 |
| TPGGGGFGQYKD [OXP1 C-terminal 12 aa] |  |  | 0.7088 ± 0.00061 | 0.677 ± 0.03 |
| SYKDTKRWMFKK [PSF3 C-terminal 12 aa] |  |  | 0.724 ± 0.057 | 0.715 ± 0.078 |
| ELTDFKYPSNYE [PUT2 C-terminal 12 aa] |  |  | 0.6787 ± 0.0024 | 0.711 ± 0.066 |
| VNLDVTEDDKQK [STE20 C-terminal 12 aa] |  |  | 0.6857 ± 0.0021 | 0.67 ± 0.04 |
| KINKNGLLENIL [IES3 C-terminal 12 aa] |  |  | 0.702 ± 0.019 | 0.7227 ± 0.0051 |
| LLCSDLVNGLMQ [SEC21 C-terminal 12 aa] |  |  | 0.706 ± 0.029 | 0.707 ± 0.0075 |
| AAQLSSILPKYM [YLR140W C-terminal 12 aa] |  |  | 0.674 ± 0.056 | 0.566 ± 0.063 |
| YNDHRLPKRAKK [HSF1 C-terminal 12 aa] |  |  | 0.6948 ± 0.0036 | 0.7354 ± 0.0051 |
| KSGPEWIAENRD [TUM1 C-terminal 12 aa] |  |  | 0.716 ± 0.023 | 0.7166 ± 0.0051 |
| PEALIKSMTSKL [SPS19 C-terminal 12 aa] |  |  | 0.712 ± 0.038 | 0.725 ± 0.18 |
| SNRILALGYILL [ATG32 C-terminal 12 aa] |  |  | 0.669 ± 0.0077 | 0.658 ± 0.0079 |
| LPPGRVFSRVRR [MRPL35 C-terminal 12 aa] |  |  | 0.683 ± 0.022 | 0.666 ± 0.012 |
| ALGLAGVAMLFL [SED1 C-terminal 12 aa] |  |  | 0.694 ± 0.02 | 0.647 ± 0.0089 |
| LLKQLKQGKISV [NOT3 C-terminal 12 aa] |  |  | 0.669 ± 0.022 | 0.6481 ± 0.0033 |
| VRYVIIHRHTST [RMD8 C-terminal 12 aa] |  |  | 0.648 ± 0.0073 | 0.599 ± 0.0066 |
| QNQDEPITENFE [TUB2 C-terminal 12 aa] |  |  | 0.718 ± 0.016 | 0.718 ± 0.025 |
| NNNIANDYMDID [YML053C C-terminal 12 aa] |  |  | 0.7268 ± 0.005 | 0.815 ± 0.067 |
| IRYSMPYRLASN [YLR264C-A C-terminal 12 aa] |  |  | 0.6856 ± 0.0022 | 0.648 ± 0.019 |
| CADCGTILNNFR [DGR2 C-terminal 12 aa] |  |  | 0.731 ± 0.017 | 0.748 ± 0.045 |
| MKHTKKLQLDKV [PKP2 C-terminal 12 aa] |  |  | 0.69 ± 0.007 | 0.696 ± 0.024 |
| LEDSTRVYSNLM [ARP1 C-terminal 12 aa] |  |  | 0.693 ± 0.007 | 0.6835 ± 0.0043 |
